This assay deals with T1, thrombin (Bos taurus, UniProt P00735).
T1 construct: purchased Sigma-Aldrich
Kind of assay: LC-MS analysis of peptide cleavage by thrombin. Type of assay: biochemical. The settings on record: 12 h incubation with 1 U mL^-1 thrombin in Tris buffer pH 7.4. As to the method: LC-MS analysis of peptide cleavage. Peptide with sequence GGLVPR|GSGGC (SEQ ID NO:1) was incubated with thrombin (1 U/mL) in Tris buffer (20 mM Tris, 150 mM NaCl, 2.5 mM KCl, pH 7.4) for 12 h.

Regarding “GGLVPRGSGGC [thrombin cleavable peptide, linker peptide cleaved by thrombin between Arg and Gly]”, the “cleavage of the peptide by thrombin (LCMS)” value is on record as “efficiently cleaved”.

For the origin of these results see patent US20210023121A1, “THROMBIN-RESPONSIVE HYDROGELS AND DEVICES FOR AUTO-ANTICOAGULANT REGULATION” (North Carolina State University, priority 2017, published 2021).
